Test results reported in US12655409B2, “Recombinant lysin and its use in the treatment of Gram-negative bacterial infections” (TELUM THERAPEUTICS S.L., priority 2020, dated 2026).

Columns and labels:
E. coli ATCC 25922 = assay: MIC by microdilution in TP-Na 10 mM pH 6.15; type: cell-based, Escherichia coli
Description: The IKB206tags endolysin was purified from the Escherichia coli BL21 (DE3) strain, as previously described.
Checkerboard tests were assessed by the microdilution method, as previously described (Moody JA 1992, Moellering E G., Jr.1996). […] Each microtiter well contained 100 μl of a E. coli inoculum of 1×10^5 CFUs mL^−1, with or without the corresponding compounds, in a final volume of 200 μl of Sodium phosphate (TP-Na) buffer 10 mM pH 6.15 per well and the plates were incubated at 37° C. for 17 h.

[1] = test system: E. coli strain ATCC 25922; assay: Enzyme bactericidal activity assay on E. coli ATCC 25922; type: cell-based, Escherichia coli
Description: (§1) Briefly, the different bacterial cultures were incubated in the specific media (Table 1) at 37° C. or 30° C., according to the strain, until reaching an A600 of 0.3. The cells were then deposited by centrifugation (4500×g, 10 min) and washed twice with the corresponding buffer, with the A600 being adjusted to ≈0.3. A volume of 160 μl of the bacterial suspension was transferred to sterile 96-well plates to which there were added 40 μl of the enzyme under study in a range of doses comprised between 1 and 60 μg mL^−1. The control wells were treated with the same volume of buffer […]. The plates were incubated at 37° C. Samples were taken at different times, serial dilutions performed, and they were seeded in plates containing the specific medium to determine viable bacteria. The experiments were repeated at least 3 times. The bactericidal effect of IKB206 (and its variants) was quantified as the number of logs reduced in the presence of treatment, after a given incubation time (log10 (N0/Ni), where N0=number of CFU mL^−1 before treatment, and Ni=number of CFU mL^−1 after the corresponding incubation time in the presence of each treatment).

[2] = test system: M. lysodeikticus lyophilized cells; assay: Enzyme specific activity assay (turbidometric, A450 decrease); type: biochemical, Micrococcus lysodeikticus; details: 37° C., 10 mM Na2HPO4/NaH2PO4 pH 6
Description: The specific activity (U mG-1) was determined using a suspension of 0.6 mg mL^−1 of M. lysodeikticus lyophilized cells as substrate resuspended in cold buffer of the enzyme (10 mM Na2HPO4/NaH2PO4, PH 6 for IKB206tags and 50 mM K2HPO4/KH2PO4, pH 6.2 for egg white lysozyme) and incubating this suspension at different concentrations of the enzyme. Egg white lysozyme (Fisher BioReagents™ Lysozyme) was used as a control. Specifically, 100 μL of the M. lysodeikticus suspension were plated, in triplicate, into a multi-well plate and 100 μL of the different enzyme concentrations were added to the corresponding well. The plate was incubated at the appropriate temperature into a thermostated spectrophotometer (37° C. for IKB206tags and 25° C. for egg white lysozyme) and the A450 decrease was monitored over 10 min.
Unit definition: 1 unit is that amount of enzyme needed to catalyze a decrease in absorbance at 450 nm of 0.001/min at the appropriate temperature and pH of each lysozyme in a 1 cm cuvette due to lysis using a ˜0.4-0.6 mg/mL suspension of M. lysodeikticus.

[3] = test system: E. coli strain DSM 17076 with serotype O157: H7; assay: Enzyme bactericidal activity assay on E. coli serotype O157:H7; type: cell-based, Escherichia coli; details: 15 μg mL^−1
Description: as §1

## C[C@@H](O)[C@H]1C(=O)N2C(C(=O)O)=C(SCCN=CN)C[C@H]12 [Imepenem]
E. coli ATCC 25922
  MIC: 2.34 µg/mL

## C[C@@H](O)[C@H]1C(=O)N2C(C(=O)O)=C(S[C@@H]3CN[C@H](C(=O)N(C)C)C3)[C@H](C)[C@H]12 [Meropenem]
E. coli ATCC 25922
  MIC: 0.59 µg/mL

B1: IKB206tags: IKB206 with S-tag at the N-terminal end, 6-His tag at the C-terminal end and thrombin cleavage sites; 329 amino acids (protein)
chain: MKETAAAKFERQHMDSPDLGTLVPRGSMAISDPMKTSPNGIAVTKYFESFEARAYPDPATGGKPYTIGFGTTVYPSGAPVRLGDVCTKEQAEKYLQNDLAKFEKIVSDAVRVPLNQGQFDALVSFTYNLGPANLRSSTLLKKLNAGDYAGAAKEFPRWNRANGKVMKGLTRRRAAEQCLFEGMGGASAIERGVAAANSGTPKNVSRGTSSTKTTPKYKVKNGDNLTKIAKKHNTTVATLLKLNPGIKDPNMIRVGQTLNVTGSGGKTHKVKSGDTLSKIAVDNKTTVSKLMNLNPEITNPNHIKVGQTIRLSLGTLVPRGSLEHHHHHH
modifications: S-tag, 6-His tag, thrombin sites; chimeric endolysin (IKB206tags)
notes: IKB206 with S-tag at the N-terminal end, 6-His tag at the C-terminal end and thrombin cleavage sites; 329 amino acids
[1]; 5 μg mL^−1, 15 min of incubation
  reduction in CFU mL^−1: significant
[1]; 15 μg mL^−1
  incubation time for killing the entire culture: 30 min
[1]; 15 μg mL^−1, 5 minutes of incubation
  reduction of the number of CFU mL^−1: more than 2 logs
[1]; 60 μg mL^−1
  incubation time for killing the entire culture: 15 min
[2]
  specific activity: around 8100 U mg^−1
[3]
  bactericidal activity on serotype O157:H7: significantly reduced the number of E. coli strain DSM 17076 cells, although it was not capable of killing the entire culture

B2: IKB206AD8: putative endolysin from phage Arya alone, catalytic domain of IKB206 without the D8 domain (protein)
chain: MKTSPNGIAVTKYFESFEARAYPDPATGGKPYTIGFGTTVYPSGAPVRLGDVCTKEQAEKYLQNDLAKFEKIVSDAVRVPLNQGQFDALVSFTYNLGPANLRSSTLLKKLNAGDYAGAAKEFPRWNRANGKVMKGLTRRRAAEQCLFEGMGGASAIERGVAAA
modifications: Enterobacter phage Arya; (1)..(163) Endolysin
[1]
  bactericidal activity in the absence of the D8 domain: presented bactericidal activity
  incubation times to obtain the same levels of bactericidal activity as IKB206: longer incubation times were needed
[1]; 15 μg mL^−1, 60 minutes
  reduction in CFU/mL: about 3 log
[1]; 15 μg mL^−1, 180 minutes
  reduction in CFU/mL: about 5 log
